Values quoted from earlier work, collected in article PMC11386291.

Legend:
[1] = molecular target: MKK4 D-motif D-motif (Homo sapiens) (UniProt P45985)
[2] = molecular target: MKK6 D-motif D-motif (Homo sapiens) (UniProt P52564)

| Kd [1] | Kd [2] | Substance |
| --- | --- | --- |
| 3.5 µM | – | JNK1 (from UniProt P45983) |
| – | 7.5 µM | p38α (from UniProt Q16539) |
